Residue numbers refer to the chain shown, from its start.
T1: his-tagged mouse IL-4R recombinant protein (m-IL-4R-his) (mouse, UniProt P16382 26-233)
T1 construct: range 26-233; also called Murine IL-4R-his; not shown: his tag
T1 sequence (looked up): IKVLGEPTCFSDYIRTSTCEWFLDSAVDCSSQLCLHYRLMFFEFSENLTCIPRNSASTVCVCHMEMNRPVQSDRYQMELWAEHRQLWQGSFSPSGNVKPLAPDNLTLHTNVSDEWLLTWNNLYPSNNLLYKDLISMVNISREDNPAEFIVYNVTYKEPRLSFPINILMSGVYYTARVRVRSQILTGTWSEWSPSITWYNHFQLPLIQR

B1: murine monoclonal antibody 25G7 (antibody, V domains shown)
VH: EVQLVESGGGLVKPGGSLKLSCAASGFTFSDYGMHWVRQAPEKGLEWVAFISSGSSIIYYADIVKGRSTISRDNAKNTLFLQMTSLRSEDTAMYYCTRGNKRGFFDYWGQGTILTVSS
VL: QIVLTQSPALMSASPGEKVTMTCNASSSVSYMYWYQRKPRSSPKPWIYLTSNLASGVPVRFSGSGSGTSYSLTISSMEAEDAATYYCQQWRSNPPMLTFGSGTKLEVK
notes: also called hybridoma 25G7
B2: murine monoclonal antibody 7B10 (antibody, V domains shown)
VH: QVQLQQPGTELLKPGASVSLSCKASGYTFTSYWMHWVKQRPGQGLEWIGLIHPNSDTTKFSENFKTRATLTIDKSSSTAYMKLSSLTSEDSAVYYCAKSKIITTIVARHWYFDVWGTGTTVTVSS
VL: DIVLTQSPPSLAVSLGQRATISCKASQSVDYGGDSYMNWYQQKLGQPPKVLIYAASNLESGIPARFSGSGSGTDFTLNIHPVEEEDVATYYCQHSNENPPTFGGGTKLEIK
notes: also called hybridoma 7B10
B3: human-murine chimeric antibody 7B10-C (antibody, V domains shown)
VH: B2 VH
VL: B2 VL
notes: Expressed in HEK293 cells
B4: humanized antibody hu25G7 (antibody, human IgG4 S228P, kappa, V domains shown)
VH: B1 VH with K13Q, K19R, E42G, T78S, F80Y, T84N, S88A, M93V, I113L, L114V
VL: EIVLTQSPATLSLSPGERATLSCNASSSVSYMYWYQQKPGQAPRLLIYLTSNLASGIPARFSGSGSGTDFTLTISSLEPEDFAVYYCQQWRSNPPMLTFGGGTKVEIKR
notes: Uses the VH-c heavy chain and the VL-a light chain; also called wild-type hu25G7
B5: humanized antibody hu7B10 (antibody, human IgG1, kappa, V domains shown)
VH: EVQLVQSGAEVKKPGASVKVSCKASGYTFTSYWMHWVRQAPGQGLEWMGLIHPNSDTTKFSENFKTRVTMTIDTSISTAYMELSRLRSDDTAVYYCAKSKIITTIVARHWYFDVWGQGTTVTVSS
VL: DIVLTQTPLSLSVTPGQPASISCKASQSVDYGGDSYMNWYLQKPGQPPQLLIYAASNLESGVPDRFSGSGSGTDFTLKISRVEAEDVGVYYCQHSNENPPTFGGGTKVEIKR
notes: Uses the VH-b heavy chain and the VL-b light chain
B6: human-murine chimeric antibody 25G7-C (antibody, V domains shown)
VH: B1 VH
VL: B1 VL
notes: Expressed in HEK293 cells
B7: hu25G7-A antibody (antibody, human IgG4 S228P, kappa, V domains shown)
VH: B1 VH with K13Q, K19R, E42G, F80Y, T84N, S88A, M93V, I113L, L114V
VL: B4 VL with N24R, S30P, S92A, N93Y
B8: hu25G7-B antibody (antibody, human IgG4 S228P, kappa, V domains shown)
VH: B1 VH with K13Q, K19R, E42G, F80Y, T84N, S88A, M93V, I113L, L114V
VL: EIVLTQSPATLSLSPGERATLSCRASPGVPPLAWYQQKPGQAPRLLIYLASSRPSGIPARFSGSGSGTDFTLTISSLEPEDFAVYYCQQWRSNPPMLTFGGGTKVEIKR
B9: Dupilumab (antibody, V domains shown)
VH: EVQLVESGGGLEQPGGSLRLSCAGSGFTFRDYAMTWVRQAPGKGLEWVSSISGSGGNTYYADSVKGRFTISRDNSKNTLYLQMNSLRAEDTAVYYCAKDRLSITIRPRYYGLDVWGQGTTVTVSS
VL: DIVMTQSPLSLPVTPGEPASISCRSSQSLLYSIGYNYLDWYLQKSGQSPQLLIYLGSNRASGVPDRFSGSGSGTDFTLKISRVEAEDVGFYYCMQALQTPYTFGQGTKLEIKR

biological target: T1, his-tagged mouse IL-4R recombinant …; assay: ELISA, IL-4R-his coated on the plate

Binder	binding result
B1	no binding
B2	no binding

biological target: T2, his-tagged human IL-4R recombinant protein (h-IL-4R-his) (human, UniProt P24394 26-232); assay: binding ELISA, human IL-4R-his coated
T2 construct: range 26-232; Made by Acrobiosystems in HEK293; also called Human IL-4R-his; not shown: his tag
Description: ELISA experiment was used to detect binding properties of anti-IL-4R antibodies. A microplate was coated with his-tagged IL-4R recombinant protein. After the antibody was added to each well, the activity of the binding of the antibody to the antigen was detected by adding a secondary antibody (HRP-conjugated anti-primary antibody Fc antibody) and HRP substrate TMB.
Human or rhesus IL-4R-his protein was coated on a 96-well microplate, 100 μL per well at a concentration of 0.5 μg/mL, and incubated overnight at 4° C. The plate was washed three times with washing buffer at 250 μL per well. A blocking solution was added at 200 μL per well and the plate was incubated at room temperature for 2 h. The plate was washed three times with washing buffer at 250 μL per well. Anti-IL-4R antibody to be tested diluted in diluent was added at 100 μL per well. The plate was incubated at room temperature for 1 h. The plate was washed three times with washing buffer at 250 μL per well. HRP-labeled goat anti-human IgG secondary antibody diluted at 1:20000 with diluent was added at 100 μL per well. The plate was incubated at room temperature for 1 h. The plate was washed three times with washing buffer at 250 μL per well. TMB was added at 100 μL per well, and the mixture was reacted for 15 min in the dark. 0.16 M/L sulfuric acid was added at 50 μL per well. The OD value was read at 450 nm by a Thermo MultiSkanFc microplate reader and the binding EC₅₀ value of the anti-IL-4R antibody to IL-4R was calculated.

Binder	EC50
B1	0.00332 µg/mL
B3	0.0118 µg/mL
B4	0.00341 µg/mL
B5	0.012 µg/mL
B2	0.0458 µg/mL
B6	0.00909 µg/mL

biological target: T3, humanized Fc-tagged human IL-4R recombinant protein (h-IL-4R-Fc) (human, UniProt P24394 26-232); assay: blocking ELISA of human IL-4/IL-4R
T3 construct: range 1-232; The printed range starts at Met1, so it includes the signal peptide of the construct; also called Human IL-4R-Fc; not shown: Fc tag
Description: (§1) Human IL-4R-Fc protein was coated on a 96-well microplate, 100 μL per well at a concentration of 0.5 μg/mL, and incubated overnight at 4° C. The plate was washed three times with washing buffer at 250 μL per well. A blocking solution was added at 200 μL per well and the plate was incubated at room temperature for 2 h. The plate was washed three times with washing buffer at 250 μL per well. Anti-IL-4R antibody to be tested diluted in diluent was added at 100 μL per well, and the plate was incubated at room temperature for 1 h. The plate was washed three times with washing buffer at 250 μL per well. […] HRP-labeled Neutravidin diluted in a diluent at 1:5000 was added, and the plate was incubated at room temperature for 1 h. The plate was washed three times with washing buffer at 250 μL per well. TMB was added at 100 μL per well, and the mixture was reacted for 15 min in the dark. 0.16 M/L sulfuric acid was added at 50 μL per well.

Binder	IC50
B7	0.144 µg/mL
B8	0.108 µg/mL

biological target: T2, his-tagged human IL-4R recombinant …; assay: Biacore SPR: antibody captured, IL-4R antigen in flow, 1:1 model
Excerpt: Human antibody capture antibody was covalently coupled to a biosensor chip CMS of Biacore instrument (Biacore X100, GE) according to the method described in the instruction of human antibody capture kit (Cat #BR-1008-39, GE), and thus a certain amount of antibodies to be tested were captured based on affinity. Then a series of concentration gradients of IL-4R antigens (the IL-4R antigens all purchased from Acrobiosystems, Cat #ILR-H5221) flowed through the surface of chip, and the Biacore instrument (Biacore X100, GE) was used to detect the reaction signals in real time to obtain the binding and dissociation curves. After each cycle of dissociation was completed, the biochip was washed and regenerated with a regeneration solution prepared in the human antibody capture kit. The amino coupling kit used in the experiment was purchased from GE corporation (Cat #BR-1000-50, GE), and the buffer was HBS-EP+ 10× buffer solution (Cat #BR-1006-69, GE) diluted to 1× (pH 7.4) with D.I. Water.
The data obtained from the experiment were fitted with BiacoreX100 evaluation software 2.0 GE software with a (1:1) binding model to obtain affinity values.

Binder	Kd
B3	0.278 nM
B4	1.07 nM
B5	0.284 nM
B6	0.725 nM

biological target: T3, humanized Fc-tagged human IL-4R …; assay: blocking ELISA: human IL-4R-Fc coated, antibody blocks the binding of IL-4
Description: as §1

Binder	IC50
B1	0.00813 µg/mL
B3	0.162 µg/mL
B4	0.0236 µg/mL
B5	0.0753 µg/mL
B2	0.0299 µg/mL
B6	0.0397 µg/mL

biological target: T4, human IL-4R on cells (HEK-Blue IL-4 cells, TF-1 cells) (human, UniProt P24394 26-825); assay: cell-based or functional assay

Binder	Blocking binding of HEK293-Blue IL-4 cells (to IL-4) (IC50)	Inhibiting IL-4-related proliferation of TF-1 cells (IC50)
B9	0.000667 µg/mL	0.491 µg/mL
B4	0.000943 µg/mL	0.0296 µg/mL
B5	0.00687 µg/mL	0.112 µg/mL

biological target: T4, human IL-4R on cells (HEK-Blue IL-4 …); assay: cell-based or functional assay; remark: another data set of the same source

Binder	IC50 for blocking binding of HEK293-Blue IL-4 cells (to IL-4)	IC50 for inhibiting IL-4-related proliferation of TF-1 cells
B1	0.000975 µg/mL	0.0513 µg/mL
B9	0.00507 µg/mL	0.102 µg/mL
B2	0.0798 µg/mL	0.418 µg/mL

biological target: T4, human IL-4R on cells (HEK-Blue IL-4 …); assay: cell-based or functional assay; remark: another data set of the same source

Binder	Blocking binding of HEK293-Blue IL-4 cells (to IL-4) (IC50)	Inhibiting IL-4-related proliferation of TF-1 cells (IC50)
B3	0.00903 µg/mL	0.0464 µg/mL
B9	0.00324 µg/mL	0.207 µg/mL
B6	0.00202 µg/mL	0.0203 µg/mL

biological target: T4, human IL-4R on cells (HEK-Blue IL-4 …); assay: cell-based or functional assay; remark: another data set of the same source

Binder	Blocking binding of HEK293-Blue cells (to IL-4) (IC50)	Blocking binding of HEK293-Blue cells (to IL-13) (IC50)	Inhibiting IL-4-related proliferation of TF-1 cells (IC50)	Inhibiting IL-13-related proliferation of TF-1 cells (IC50)
B9	0.0125 µg/mL	0.0148 µg/mL	0.101 µg/mL	0.0181 µg/mL
B7	0.00649 µg/mL	0.01 µg/mL	0.0837 µg/mL	0.0132 µg/mL
B8	0.0066 µg/mL	0.00838 µg/mL	0.051 µg/mL	0.0137 µg/mL
